Reference: article PMC5887321
Where two headings read alike, the source gives them in different places.

What was measured:
Assay in all cases: SEC-SAXS
[1] = molecular target: T1, DC-RIG-I (CARDs-truncated) (human, UniProt O95786 239-925)
T1 sequence: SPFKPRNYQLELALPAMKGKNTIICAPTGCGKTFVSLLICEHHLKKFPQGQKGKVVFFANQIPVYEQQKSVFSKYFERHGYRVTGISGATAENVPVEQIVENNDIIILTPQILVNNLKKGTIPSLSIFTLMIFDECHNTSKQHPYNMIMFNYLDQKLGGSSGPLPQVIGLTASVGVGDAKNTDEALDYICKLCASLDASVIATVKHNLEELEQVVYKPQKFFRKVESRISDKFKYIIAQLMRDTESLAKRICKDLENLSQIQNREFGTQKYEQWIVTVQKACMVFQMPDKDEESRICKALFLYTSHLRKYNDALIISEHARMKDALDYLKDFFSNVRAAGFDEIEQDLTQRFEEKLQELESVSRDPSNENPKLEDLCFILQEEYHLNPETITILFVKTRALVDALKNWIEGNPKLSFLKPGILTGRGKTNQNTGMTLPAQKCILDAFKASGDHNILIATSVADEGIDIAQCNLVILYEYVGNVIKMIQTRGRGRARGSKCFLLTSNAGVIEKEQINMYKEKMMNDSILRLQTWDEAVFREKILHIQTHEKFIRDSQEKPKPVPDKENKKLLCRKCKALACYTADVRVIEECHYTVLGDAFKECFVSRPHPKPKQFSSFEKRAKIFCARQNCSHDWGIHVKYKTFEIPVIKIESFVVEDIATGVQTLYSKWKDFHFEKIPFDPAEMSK

[2] = molecular target: T2, FL-RIG-I (human, UniProt O95786 1-925)
T2 sequence: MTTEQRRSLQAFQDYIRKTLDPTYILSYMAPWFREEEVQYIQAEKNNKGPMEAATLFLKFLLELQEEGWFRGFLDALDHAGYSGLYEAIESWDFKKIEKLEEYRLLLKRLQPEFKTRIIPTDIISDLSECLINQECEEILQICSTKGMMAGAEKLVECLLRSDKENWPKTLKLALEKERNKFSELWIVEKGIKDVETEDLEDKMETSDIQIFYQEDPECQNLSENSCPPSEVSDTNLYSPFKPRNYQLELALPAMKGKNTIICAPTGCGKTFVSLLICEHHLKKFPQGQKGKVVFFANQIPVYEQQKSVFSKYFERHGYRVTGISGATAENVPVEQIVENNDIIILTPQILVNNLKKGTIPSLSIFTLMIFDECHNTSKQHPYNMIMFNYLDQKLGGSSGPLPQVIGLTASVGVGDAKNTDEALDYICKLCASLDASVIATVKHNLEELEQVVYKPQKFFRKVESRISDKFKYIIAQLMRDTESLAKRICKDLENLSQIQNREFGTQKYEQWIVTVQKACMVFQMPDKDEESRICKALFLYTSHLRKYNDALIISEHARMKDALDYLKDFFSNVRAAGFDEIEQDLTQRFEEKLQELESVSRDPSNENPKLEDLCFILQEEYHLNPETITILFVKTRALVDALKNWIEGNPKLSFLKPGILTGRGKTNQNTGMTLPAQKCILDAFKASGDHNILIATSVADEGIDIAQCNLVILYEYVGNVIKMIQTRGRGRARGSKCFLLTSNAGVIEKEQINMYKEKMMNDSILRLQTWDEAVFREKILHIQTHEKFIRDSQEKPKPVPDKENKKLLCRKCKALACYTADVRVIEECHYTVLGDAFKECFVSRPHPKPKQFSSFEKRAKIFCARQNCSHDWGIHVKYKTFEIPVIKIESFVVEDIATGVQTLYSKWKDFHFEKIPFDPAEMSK

[3] = molecular target: T2, FL-RIG-I; remark: listed apart in the source
[4] = molecular target: T1, DC-RIG-I (CARDs-truncated); remark: listed apart in the source
[5] = molecular target: T1, DC-RIG-I (CARDs-truncated); remark: listed apart in the source
[6] = molecular target: T2, FL-RIG-I; remark: listed apart in the source

B1: 5'ppp 10 bp hairpin (10 bp) (structured_RNA)
RNA: GGACGUACGUUUCGACGUACGUCC
modifications: 5'-triphosphate
B1: binds [1]; binds [2].

B2: 5'ppp 8 bp hairpin (8 bp, SEC peak 1) (structured_RNA)
RNA: GGCGCGGCUUCGGCCGCGCC
modifications: 5'-triphosphate
B2: binds [3]; binds [4].

B3: 8 bp-long (self-annealed 8 bp, SEC peak 2) (dsRNA)
RNA 1: GGCGCGGCUUCGGCCGCGCC
RNA 2: GGCGCGGCUUCGGCCGCGCC
modifications: 5'-triphosphate on each strand
B3: binds [5]; binds [6].
